Measurements published in article PMC8752864 (Nature Communications, 2022).
Where a chain is given by its changes, count along the chain named. Read-outs that look alike come from different tables or passages of the source.

B1: Nb8204 (VHH)
VHH: QVQLQESGGGLVQPRGSLRLSCAASGSIAIIYTMGWYRQAPLKERELVATVTYGGNTNYADPVKGRFTISRDNNKNTEYLQMSSLQPEDTAVYYCYMRVRSTAWDTDDYWGQGTQVTVSS
notes: source: E. coli WK6, periplasm, purified (Ni-NTA)
B2: Nb8207 (VHH)
VHH: QVQLQESGGGLVQAGASLRLSCTASGRTSSTYPMGWFRQGPGKEREFVAAISWAGSSTYYGDFVKGRFTISRDNAKNTVYLQMNSLKPEDTAVYYCARAARPYAYGLDYSTEASYDYWGQGTQVTVSS
notes: as for B1
B3: Nb8197 (VHH)
VHH: QVQLQESGGGLVQPGGSLRLSCAASGFTFSSYAMSWVRQAPGKGLEWVSSITSAFGRTSYVSSVKGRFTISRDNAKNTLYLQMNSLKPEDTAVYYCAQGASWPYRYRGQGTQVTVSS
B4: Nb8206 (VHH)
VHH: QVQLQESGGGLVQPGGSLRLSCTASGGIFGISAMGWYRQAPGKERELVARITRSGSTNFADSVKDRFTISRDATENTVVLQMNSLKAEDTAVYYCNGQFWEVDNGNIDLWGQGTQVTVSS
notes: as for B1
B5: Nb8192 (VHH)
VHH: QVQLQESGGGLVQAGASLRLSCAASGRTFMGWFRQAPGQEREFVAAIDAFGINTYYADSAKGRFTISRDSAKNTVYLQMNSLKPEDTAVYYCAATLRGTQPGAVMQWRPDYWGQGTQVTVSS
notes: as for B1
B6: Nb8203 (VHH)
VHH: QVQLQESGGGLVQAGGSLRLSCAAPGRILTLSRYVMGWFRQAPGKEREFVAAISPGTTDTDYADSVKGRFTISRDNAKNTVYLEMSSLKPEDTAVYVCAAGAASSGTVYRVYGLYNYRGQGTQVTVSS
B7: Nb8200 (VHH)
VHH: QVQLQESGGGLVQAGDSLRLSCAASGRTFSGYIMAWFRQTPGKERELVARLGPSSSIQYYRDSVKGRFTLSRDNAKNTLYLQMNSLKPEDTAVYYCAFTLKWSSDYRSHNAYDYWGQGTQVTVSS
notes: as for B1
B8: Nb8199 (VHH)
VHH: QVQLQESGGGLVQAGGSLRLSCAASGRTFSSYAMGWFRQAPGKEREFVGAIDLSGLYKHYGDSVKGRFTISRDNAKNTVYLQMSSLKPEDTAVYYCAAAGIYYAGSYSPLLYDYWGQGTQVTVSS
notes: as for B1
B9: Nb8201 (VHH)
VHH: QVQLQESGGGLVQPGGSLRLSCAASGSDFSLYAMGWYRQVPGKERELVATITIGGTTNFADSARGRFTISRGNAKNTVYLQMNNLKPEDTAVYYCWSRGSYGRYLETWGQGTQVTVSS
notes: as for B1
B10: Nb8189 (VHH)
VHH: B9 VHH with I53S
notes: as for B1
B11: Nb8208 (VHH)
VHH: QVQLQESGGGLVQPGGSLRLSCAASGRTFSMYAMAWFRQAPGKQREFVGTISRSGDYALHADAVKGRFTISRDNAKNTVYLQMNSLKLEDTAVYYCAAGAYHSKDKTLYDYWGQGTQVTVSS
notes: as for B1
B12: Nb8202 (VHH)
VHH: QVQLQESGGGLVQAGESLRLSCAASGGTFIYYGMGWFRQAPGKEREFVASISQTGGDIYAMDFVKGRFTISRDNSKNTLYLQMNSLKPEDTAVYYCAAATSPYASRKLYEYKYWGQGTQVTVSS
notes: as for B1
B13: Nb8210 (VHH)
VHH: B12 VHH with F29L, T54A, M83L, S85T, E110D
notes: as for B1
B14: Nb8194 (VHH)
VHH: QVQLQESGGGLVQPGGSLRLSCAASGFTFSNYYMSWVRQAPGEGREWVSSINRDGSNTYYADSVKGRFTIARDNVKNTLYLLMDSLKSDDTAVYYCTKGSNWPYDNWGQGTQVTVSS
notes: as for B1
B15: Nb8196 (VHH)
VHH: QVQLQESGGGLVQAGDSLRLSCTTSGSSLSRYGVGWFRQAPGEEREFGASISWNGATYYADSVKGRFTISRDNAKNTVYLQMNSLKAEDTAVYYCAARSDGYLTPYLSPVYWGQGTQVTVSS
notes: as for B1
B16: Nb8191 (VHH)
VHH: QVQLQESGGGLVQPGGSLRLSCTASESVASINIVGWYRQISGKERELVARISSGGTITDYSDSVKGRFTITRDNTKNTVYLQMNSLKRGDTAVYYCNAEYQYGSDWFHIWGQGTQVTVSS
notes: as for B1
B17: Nb8190 (VHH)
VHH: QVQLQESGGGLVQAGGSLRLSCAASGRSLSDYTMGWFRQAPGKEREFVTAITSDGVYANYADSVKGRFTISRDNAKNTAYLQMNSLKPEDTAVYYCAGKTRRSMLMTTGYDYWGQGTQVTVSS
notes: as for B1
B18: Nb8198 (VHH)
VHH: QVQLQESGGGLVQTGDSLRLSCAGAERSFNSYTMGWFRQAPGKEREFVAAIAFSGGFTYYAEAVKGRFTISRDSGKNTVYLQMNSLKPEDTAVYYCAARFYGGGYYYQQREYSFWGQGTQVTVSS
notes: as for B1
B19: Nb8209 (VHH)
VHH: QVQLQESGGGLVQPGGSLRLSCAASGNIRSINTMSWYRQAPGKERELVASDSTGGSTGGSTVYAASVKGRFTISRDNAKNTVYLQMNMLKPEDTAVYYCYVYGMSRFGSTISTLFGQGTQVTVSS
notes: as for B1
B20: Nb8205 (VHH)
chain: QVQLQESGGGMVQPGGSLRLSCLASGFTFSNYAMTWVRQAPGKGPEWVSMVSNNGADTTYTDSVKGRFTISRDNAKNTLYLRMNNVKPEDSAVYYCAKRRYGGIWTGQPTDYDYLGQGTVTVSS
B21: polymerase basic 2 (PB2) subunit of influenza A/Brevig Mission/1/1918 (H1N1) virus (natural protein)
chain: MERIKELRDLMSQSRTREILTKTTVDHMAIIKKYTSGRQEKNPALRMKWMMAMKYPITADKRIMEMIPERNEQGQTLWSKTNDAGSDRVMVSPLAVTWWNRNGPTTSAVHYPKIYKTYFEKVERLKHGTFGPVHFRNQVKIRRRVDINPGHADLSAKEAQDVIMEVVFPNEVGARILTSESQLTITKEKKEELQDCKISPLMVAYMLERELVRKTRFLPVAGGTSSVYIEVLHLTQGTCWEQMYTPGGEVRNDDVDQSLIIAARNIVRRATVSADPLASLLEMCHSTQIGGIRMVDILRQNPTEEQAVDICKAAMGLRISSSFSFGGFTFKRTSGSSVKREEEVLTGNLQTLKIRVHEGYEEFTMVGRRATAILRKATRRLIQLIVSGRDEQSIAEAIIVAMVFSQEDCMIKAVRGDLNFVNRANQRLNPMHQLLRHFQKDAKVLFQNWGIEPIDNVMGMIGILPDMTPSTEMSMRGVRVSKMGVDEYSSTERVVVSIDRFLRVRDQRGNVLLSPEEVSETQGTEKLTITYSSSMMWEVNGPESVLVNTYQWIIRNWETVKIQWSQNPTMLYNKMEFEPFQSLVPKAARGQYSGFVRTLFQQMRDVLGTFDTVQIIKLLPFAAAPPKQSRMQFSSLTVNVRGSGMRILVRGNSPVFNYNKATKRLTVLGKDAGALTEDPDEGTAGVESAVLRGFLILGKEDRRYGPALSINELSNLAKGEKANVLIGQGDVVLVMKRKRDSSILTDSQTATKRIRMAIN
notes: the PB2 chain of m1
B22: RNA polymerase of influenza A/Brevig Mission/1/1918 (H1N1) virus, heterotrimer of PA, PB1 and PB2 (complex)
chain 1: […]
chain 2: MDVNPTLLFLKVPAQNAISTTFPYTGDPPYSHGTGTGYTMDTVNRTHQYSEKGRWTTNTETGAPQLNPIDGPLPEDNEPSGYAQTDCVLEAMAFLEESHPGIFENSCLETMEVVQQTRVDKLTQGRQTYDWTLNRNQPAATALANTIEVFRSNGLTANESGRLIDFLKDVMESMDKEEMEITTHFQRKRRVRDNMTKKMVTQRTIGKKKQRLNKRSYLIRALTLNTMTKDAERGKLKRRAIATPGMQIRGFVYFVETLARSICEKLEQSGLPVGGNEKKAKLANVVRKMMTNSQDTELSFTITGDNTKWNENQNPRMFLAMITYITRNQPEWFRNVLSIAPIMFSNKMARLGKGYMFESKSMKLRTQIPAEMLASIDLKYFNDSTRKKIEKIRPLLIDGTASLSPGMMMGMFNMLSTVLGVSILNLGQKRYTKTTYWWDGLQSSDDFALIVNAPNHEGIQAGVDRFYRTCKLLGINMSKKKSYINRTGTFEFTSFFYRYGFVANFSMELPSFGVSGINESADMSIGVTVIKNNMINNDLGPATAQMALQLFIKDYRYTYRCHRGDTQIQTRRSFEIKKLWEQTRSKAGLLVSDGGPNLYNIRNLHIPEVCLKWELMDEDYQGRLCNPLNPFVSHKEIESVNNAVMMPAHGPAKNMEYDAVATTHSWIPKRNRSILNTSQRGILEDEQMYQKCCNLFEKFFPSSSYRRPVGISSMVEAMVSRARIDARIDFESGRIKKEEFAEIMKICSTIEELRRQK
chain 3: B21 chain
notes: also called 1918 polymerase; 1918 pandemic influenza virus polymerase; copies: + +
B23: Nb8193 (VHH)
VHH: QVQLQESGGGLVQPGGSLRLSCAASGFTFKMYAMSWVRQAPGKGLEWVSSINSAGGSTSYVDSVKGRFTISRDNAKNTLYLQMNSLKPDDTAVYYCVQGRNWPYDYRGQGTQVTVSS
notes: as for B1

Tests used:
[1] = target: T1, RNA polymerase of influenza A/Brevig Mission/1/1918 (H1N1) virus, heterotrimer of PA, PB1 and PB2 (influenza A/Brevig Mission/1/1918 …, UniProt Q3HM39;Q3HM40;Q3HM41); assay: cryo-EM structure; conditions: both partners purified
T1 construct: also called 1918 polymerase; 1918 pandemic influenza virus polymerase; copies: + +

[2] = target: T2, PB2 cap-mid-link construct (cap-binding and mid-link domains) from influenza A/duck/Fujian/01/2002 (H5N1) (Influenza A virus …)
[3] = target: T2, PB2 cap-mid-link construct (cap-binding …); assay: SEC; conditions: both partners purified
[4] = target: T3, polymerase acidic (PA) subunit of influenza A/Brevig Mission/1/1918 (H1N1) virus (influenza A/Brevig Mission/1/1918 …, UniProt Q3HM39); assay: cryo-EM structure; conditions: both partners purified
T3 construct: the PA chain of m1

[5] = target: the molecule itself; assay: cryo-EM structure

| Binder | binding result [1] | further results |
| --- | --- | --- |
| B1 | binds | – |
| B2 | binds | – |
| B3 | – | binding result [2]: binds |
| B4 | binds | – |
| B5 | binds | – |
| B6 | binds | – |
| B7 | binds | – |
| B8 | binds | – |
| B9 | binds | – |
| B10 | binds | – |
| B11 | – | binding result [3]: binds |
| B12 | binds | – |
| B13 | binds | – |
| B14 | – | binding result [3]: binds |
| B15 | binds | – |
| B16 | binds | – |
| B17 | binds | – |
| B18 | binds | – |
| B19 | binds | – |
| B20 | binds | – |
| B21 | – | binding result [4]: binds |
| B22 | – | binding result [5]: binds |
| B23 | – | binding result [3]: binds |
